Columns and labels:
Assay in all cases: MODified Histone Peptide Array
[1] = molecular target: H2A K13ac (histone peptide array spots containing the mark); conditions: whole cell lysate from HEK293 cells transiently transfected; ECL plus western blot detecting reagent; read off a plot
[2] = molecular target: H2A K9ac (histone peptide array spots containing the mark); conditions: whole cell lysate from HEK293 cells transiently transfected; ECL plus western blot detecting reagent; read off a plot
[3] = molecular target: H4 K12ac (histone peptide array spots containing the mark); conditions: whole cell lysate from HEK293 cells transiently transfected; ECL plus western blot detecting reagent; parent: est. 8.1; read off a plot
[4] = molecular target: H4 K5ac (histone peptide array spots containing the mark); conditions: whole cell lysate from HEK293 cells transiently transfected; ECL plus western blot detecting reagent; parent: est. 9.4; read off a plot
[5] = molecular target: H4 K8ac (histone peptide array spots containing the mark); conditions: whole cell lysate from HEK293 cells transiently transfected; ECL plus western blot detecting reagent; parent: est. 10; read off a plot
[6] = molecular target: H4 R19me2s (histone peptide array spots containing the mark); conditions: whole cell lysate from HEK293 cells transiently transfected; ECL plus western blot detecting reagent; read off a plot
[7] = molecular target: H4 R24me2a (histone peptide array spots containing the mark); conditions: whole cell lysate from HEK293 cells transiently transfected; ECL plus western blot detecting reagent; read off a plot
[8] = molecular target: H4 R3me2a (histone peptide array spots containing the mark); conditions: whole cell lysate from HEK293 cells transiently transfected; ECL plus western blot detecting reagent; parent: est. 5.9; read off a plot
[9] = molecular target: H4 R3me2s (histone peptide array spots containing the mark); conditions: whole cell lysate from HEK293 cells transiently transfected; ECL plus western blot detecting reagent; parent: est. 5.9; read off a plot
[10] = molecular target: H4 S1P (histone peptide array spots containing the mark); conditions: whole cell lysate from HEK293 cells transiently transfected; ECL plus western blot detecting reagent; parent: est. 5.3; read off a plot

other: Specificity Factor [1]: 4.5
other: Specificity Factor [2]: 4.4
other: Specificity Factor [3]: 6.1
other: Specificity Factor [4]: 11
other: Specificity Factor [5]: 13
other: Specificity Factor [6]: 3.4
other: Specificity Factor [7]: 3.9
other: Specificity Factor [8]: 6.7
other: Specificity Factor [9]: 5.5
other: Specificity Factor [10]: 3.4
Substance: BRD4-SF-FLAG (BRD4 short isoform with a single FLAG epitope tag at the C-terminus) (from UniProt O60885-2) Y433A

Reference: PMC3834312
